According to article PMC6849348, “Theranostic Application of a Novel G-Quadruplex-Forming DNA Aptamer Targeting Malate Synthase of Mycobacterium tuberculosis”:

Key:
[1] = target: T1, malate synthase (MS, GlcB) (Mycobacterium tuberculosis, UniProt P9WK17 1-741); assay: ALISA; settings: protein: recombinant; tags: C-terminal His6
[2] = target: T1, malate synthase (MS, GlcB); assay: enzyme inhibition (mixed); glyoxylate, acetyl-CoA, 5 mM Mg2+; settings: protein: recombinant, tags: C-terminal His6
[3] = target: T1, malate synthase (MS, GlcB); assay: enzyme inhibition; glyoxylate, acetyl-CoA, 5 mM Mg2+; settings: protein: recombinant, tags: C-terminal His6
[4] = target: T1, malate synthase (MS, GlcB); assay: SPR; settings: protein: recombinant, tags: C-terminal His6
[5] = G4 parallel (CD, NMR), modeled as tetramer of 4 strands

T1 sequence (P9WK17 whole entry): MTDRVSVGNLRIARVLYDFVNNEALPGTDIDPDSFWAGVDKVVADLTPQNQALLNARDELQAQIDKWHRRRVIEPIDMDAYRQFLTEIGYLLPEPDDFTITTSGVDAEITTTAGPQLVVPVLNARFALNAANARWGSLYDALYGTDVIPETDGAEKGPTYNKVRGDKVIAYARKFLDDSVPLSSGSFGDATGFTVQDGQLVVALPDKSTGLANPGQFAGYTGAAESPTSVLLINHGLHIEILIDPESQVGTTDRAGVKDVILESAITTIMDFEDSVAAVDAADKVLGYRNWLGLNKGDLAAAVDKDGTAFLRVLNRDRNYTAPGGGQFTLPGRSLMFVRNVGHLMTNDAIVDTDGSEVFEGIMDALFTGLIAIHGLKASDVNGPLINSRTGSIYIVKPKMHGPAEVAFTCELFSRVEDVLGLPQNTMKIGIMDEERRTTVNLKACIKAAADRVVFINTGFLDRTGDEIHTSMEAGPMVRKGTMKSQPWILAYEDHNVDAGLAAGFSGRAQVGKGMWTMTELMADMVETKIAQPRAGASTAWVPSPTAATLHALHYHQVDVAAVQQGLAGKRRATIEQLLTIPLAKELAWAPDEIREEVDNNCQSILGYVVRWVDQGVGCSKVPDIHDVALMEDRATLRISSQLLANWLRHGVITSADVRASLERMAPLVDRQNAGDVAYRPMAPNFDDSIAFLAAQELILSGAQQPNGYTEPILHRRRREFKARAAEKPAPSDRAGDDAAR

## GGTGGTGGGG (structured_DNA) [MS10-Trunc dT9]
[1]
  binding result: binds

## GGTGTGTTGACTGAGGGGGTGGGGTGGGTGGTGGTGGATATAGC (structured_DNA) [MS10]
[2]; G4, parallel (CD)
  Ki: 270 nM
[3]; G4, parallel (CD)
  IC50: 276 nM
[4]; G4, parallel (CD)
  Kd: 12 nM

## GGTGGTGGTGG (structured_DNA) [MS10-Trunc]
[2]; [5]
  Ki: 230 nM
[3]; [5]
  IC50: 251 nM
[4]; [5]
  Kd: 0.019 nM

## GGGGTGGTGG (structured_DNA) [MS10-Trunc dT3]
[1]
  binding result: binds
